Test results taken from the DeepSol protein solubility set.

Assay: soluble on expression in E. coli; label from the status in PepcDB or PDB records

Sequence	soluble on expression in E. coli
MVCFASLFEEVSMHTCPLCHNQHTRHYFEDKHREYLQCEQCYLVFVNPDQRLDAETEKAHYDLHENNPEDIGYRRFLSRIADPITERISPQSNGIDFGCGPGPTLSLMLEEAGHNMALYDIYYHPDTAVLEKQYDFMTATEVIEHLYHPDVVWKQWLNLVKPGGWIGLMTKMVIDVEAFKSWHYKNDPTHVVFFSRDTFQFLAERDKLELEFIGNDVILLRKTQLEHHHHHH	soluble
MSLTNLLQKIGDAVTVVNFSLYEGFIFDMDGTLLDTMPAHLAAWEATAKHFDFPFDAQWLYGLGGMPSAKITTHINKKLGLALDPDRVAAYKMDWFASMGLQAEVIPATYELLCQWQGKKKMAIGTGSQRDSALRLLSNAQVLDKFDAVVTASDVQQHKPHPETFLMACEQLGLTPKQCLVFEDTQLGLQAAHAGGMDCMLVTEQGLVFYPFAHEGHHHHHH	soluble
GGSHMELPGSSMKPSGEDQAALAAGPWEECFQAAVQLALRAGQIIRKALTEEKRVSTKTSAADLVTETDHLVEDLIISELRERFPSHRFIAEEAAASGAKCVLTHSPTWIIDPIDGTCNFVHRFPTVAVSIGFAVRQELEFGVIYHCTEERLYTGRRGRGAFCNGQRLRVSGETDLSKALVLTEIGPKRDPATLKLFLSNMERLLHAKAHGVRVIGSSTLALCHLASGAADAYYQFGLHCWDLAAATVIIREAGGIVIDTSGGPLDLMACRVVAASTREMAMLIAQALQTINYGRDDEK	soluble
MGSDKIHHHHHHMNIGGGKFLLGRISNNPTSGIVGLANVGKSTFFQAITNSKLGNPANYPFATIDAECAKVNIPSVPLSNLLRIYQSAKCVPGTLTIYDIAGLTRGASQGHGLGNKFLNDIRHVEGIFQVVRGFLKEDITHIEGNVDPVRDLSVVQDELILKDLEFLENIRERLSKKMRMVSKNSKEHQEMKIETELLDALEEHLFNGKKIRHFKDHWNLDEVKILNKHNFLTSKPTLILLNVSPQDYVRNENKFVRNIIEWINEFSPGDKFLLFSAEFESQLMECKGIASEYFDKIKEDTNVSDQQLVSAIPQIILEMRKLLNLISFFTCGPQEVHQWNIREGTTAQEAAGVIHSDLRETFISADVIKYDDLKKMEPPLNESLLKSKGLIKRAGKQYIMQDNDIALFKAAGGKIKK	not soluble
MMQMPKIGIIGGSGVYGVFEPKEVVKVHTPYGRPSAPIEIGEIEGVEVAFIPRHGKYHEFPPHQVPYRANIWALHELGVERVIAINAVGSLKEEYKPGDIVIIDQFIDFTKKREYTFYNGPKVAHVSMADPFCPELRKIFIETAKELNLPVHERGTYVCIEGPRFSTRAESRMFRQFADVIGMTLVPEVNLARELGMCYVNISTVTDYDVWAEKPVDAQEVLRVMKENEEKVQKLLKRAIPKIPEERKCGCADVLKTMFV	soluble
MGSDKIHHHHHHMIGALYVVGPAGTGKSTFSGSLNEWLKRMEFDSAIINLDPGADYLPYEPDFDIREYISLDSIMSDYNLGPNGSQIVAADMIVSYTDKITEFLEDLDDYYVVVDTPGQIELFTFRTSSTEIVEKVSGQRSMMAYIADAPLATYPSGFIAQKMLYASVFSRFFRPMMFVLNKIDLVSDEDIQEVKKWESSPDLLNDAFMEEKGQMEKDYFVGILQAFKESNIMTKIYPVSSRDSFGFEDIYSQMALYFTGGEDNDTYREEG	not soluble
MAHHHHHHMNKNYPGRITSAPLAQQARGLSLRPGAPASFLDRAQPGGAGTGIGAQQSHHNNNLPRAPRAKPPTQLQTPAPAPPLPKEEAEEERSGAAEVAPSEVSYPEDHIYDVEDFIKLRKCQAPVPSEVMEYARAMWKEMPENMDDMENNSLRDNLFREQNASTMSKVMTDRKINNEVLGILGKVTASNLEKMKKELTDLPIRQSTKEEIDEV	soluble
MDSDRLSSVEQFPDRGNNHVEEGSAIDYQRVPPLSGTHYASTVSAGFYEATPLLGSLVHTLEHGAVIVYYDPDEISPEARQSLREFSSVHTGTWRSVVAVPNPNDDPRATYVVTAWQHELTIDSYDAETVHAFLSEYLGRGPENPVRLEHHHHHH	not soluble
MTIKEMPQPKTFGELKNLPLLNTDKPVQALMKIADELGEIFKFEAPGRVTRYLSSQRLIKEACDESRFDKNLSQALKFVRDFAGDGLFTSWTHEKNWKKAHNILLPSFSQQAMKGYHAMMVDIAVQLVQKWERLNADEHIEVPEDMTRLTLDTIGLCGFNYRFNSFYRDQPHPFITSMVRALDEAMNKLQRANPDDPAYDENKRQFQEDIKVMNDLVDKIIADRKASGEQSDDLLTHMLNGKDPETGEPLDDENIRYQIITFLIAGHETTSGLLSFALYFLVKNPHVLQKAAEEAARVLVDPVPSYKQVKQLKYVGMVLNEALRLWPTAPAFSLYAKEDTVLGGEYPLEKGDELMVLIPQLHRDKTIWGDDVEEFRPERFENPSAIPQHAFKPFGNGQRACPGQQFALHEATLVLGMMLKHFDFEDHTNYELDIKETLTLKPEGFVVKAKSKKIPLGGIPSPSTEQSAKKVRKKAENAHNTP	soluble
MGSDKIHHHHHHMLKINMFSAADSVKGQGVGSAYNELMNLLKTHLNQEFDVSVNRYRRVDITHYHTINFSYYLSTFLPHRGRKIGYVHFLPETLEGSLKIPQPFRSIFYAYVLAFYRRMDHIVVVNPTFIPKLVAAGIPAERVTYIPNFVSRDEFYPVTVEQKQALRQQYGYATDRFTILGIGQIQERKGLFDFIKLARNNPSYQFIWAGGFSFGRMTDGYAELKKVVDNPPANLSFPGIVDRDKLVDYYNLADLFLLPSFNELFPMSVLEAFSTGTPVLLRDLDLYQAIIAGDYQPAKDYAEMDEQLHRLAADPQALAHWRQQSLAAADRYSEEHLTQIWREFYTQQAKER	not soluble
MDDSLGVSEVVMIPFMKREVLQQICAILDTDNTWETIAPYMPGIELRDVEGCKRYSSYNQSPSELLLRIWSSKGYSTTHLYQLFAKTKLIRLMRMMRSQVHEKYHYLENKVTNSTSRVSKQMVQPPGSQSASRLKKTEIKESSPSPAAAAASQLSRSNTDDTLRVAIEGTLPVTYCELLEATNGFAVSNVIGKGGYGTVYKGELKGTGGIVAVKRLHSGNDTSQNGSRERLRQSLTELRTLARFRHDNILPIYAYSLEGSEPCLVYQFMSNGSLEDRLLCRKGSVPLTWIQRKEISIGAGRGLGFLHSFGKTPIIHGDIKTANILLDKHMEPKIGDFGLCRDGHVEAEAMEKHPLIASHIKGTLAYLAPEFITSKILTTKLDVYSFGIVLLEIASGQRAYSDSRETRGLVEYCQVNKELAAHRKIPVREIFIDRRAPPLVGDEEKSFLDALIEVGLAGANNDRKVRPTMSQIVEYLCKNSIPPVV	not soluble
GPLGSKLNDILHVYEKSKERELQSQLFNAWRNRFCFYTEECNIQAISKRNYQLEKMVLKKFRERLLEIVKSEE	soluble
MATGVIRGAELSPSYIIEEILGLYQNIVVLSNEEIVYGLSDRNRELFQELEYLVSLEVEDSVVQDILQKKELEPAFTEIKRFRNLYTVRLETEHAKEILSSDSPWASLEMFSFYGNYLKLVRTEYEGLRLSSGDTVFFLGSGPLPLTLIVFFRLYGVKSTGIEKDSFRANLSKKVLEKLGLSSVIKIVNGNHFSLSRKDLSLSPDTGVKALMIAAQAEPKKEIFEHLLEVMPIGGRISCRIYEKGLRKLLSGNCLFDLPEGFVEQERVQPQPPVYNTVIFFEKKRLEHHHHHH	not soluble
MMKIVPPKPFFFEAGERAVLLLHGFTGNSADVRMLGRFLESKGYTCHAPIYKGHGVPPEELVHTGPDDWWQDVMNGYEFLKNKGYEKIAVAGLSLGGVFSLKLGYTVPIEGIVTMCAPMYIKSEETMYEGVLEYAREYKKREGKSEEQIEQEMEKFKQTPMKTLKALQELIADVRDHLDLIYAPTFVVQARHDEMINPDSANIIYNEIESPVKQIKWYEQSGHVITLDQEKDQLHEDIYAFLESLDW	soluble
MTHELISLPYAVDALAPVISKETVEFHHGKHLKTYVDNLNKLIIGTEFENADLNTIVQKSEGGIFNNAGQTLNHNLYFTQFRPGKGGAPKGKLGEAIDKQFGSFEKFKEEFNTAGTTLFGSGWVWLASDANGKLSIEKEPNAGNPVRKGLNPLLGFDVWEHAYYLTYQNRRADHLKDLWSIVDWDIVESRY	soluble
MSNLSGTDKSVILLMTIGEDRAAEVFKHLSTREVQALSTAMANVRQISNKQLTDVLSEFEQEAEQFAALNINANEYLRSVLVKALGEERASSLLEDILETRDTTSGIETLNFMEPQSAADLIRDEHPQIIATILVHLKRSQAADILALFDERLRHDVMLRIATFGGVQPAALAELTEVLNGLLDGQNLKRSKMGGVRTAAEIINLMKTQQEEAVITAVREFDGELAQKIIDEMFLFENLVDVDDRSIQRLLQEVDSESLLIALKGAEPPLREKFLRNMSQRAADILRDDLANRGPVRLSQVENEQKAILLIVRRLAETGEMVIGSGEDTYV	not soluble
MGSDKIHHHHHHLEEILKLKASDTASLEARGEANKKYGIQDFDTWVKRILSRINCSSVLDVCCGTGNQLTYYIQMPCTTNILGVDISKDSLKIARQRCEYLLSTNKKLTLKCCKMEEMFDDKEIDRQYDLISCFYGLYYAEDVDVIVERMIDHLNHKGVFLIVGPYGKNNASLFEIIQKHCMIPELVIKSSTTFMQEDLILKLVTLPGISVDTETFVNPILYPSPQAVMDYWQASTFYVPQYHSTIQQELEKRFENHDVFVVEKHIMAIIASKL	not soluble
MSLRPATDSPPLCAPPGAEVRAPSFVMPAGACDTHAHVISGDLERYPLVPDRSYTPPPAPEALYLEVLRAMGMQRGVLVQPSVYGTDNRYMLEVLQRHQDQLRGVAVVDEHVGDDELAHMHALGVRGVRINVLFRGGVNLDLMEHLAHRIADLGWHMQFLIDVRLLSEIEARMAKLPCAVVIDHFGHFPAHLGIKEAGFELLLRNVAEHGWWVKLSGAYRLSDQRPDYADTDALAHALLAVAPERMVWGSDWPHVALESTPDTSSLLDRLLSWAPSERQRQSILVDNPGALYDFKEGHHHHHH	soluble
AHHHHHHGSRYFFYPNSVAIFGSFREGAIAREILRNIVEGGFEGKIIPVNPKGGEVEVAGKKFNIKEKLDEPVDVSIIAIPAKLVPELIRGLKGLTKGAVVISAGFSEVGNVELEKELIKAAKEAGIRVIGPNCAGIFGVHAKFYGSFEVRVNPGGLALISQSGAFGGAALAMGNEEGIGFSAFVSYGNAADLDESDFLRFFADDENTRVIGLYIEGVKDGRKFLDALRYAASKKPVIILKAGKSRAGARAAASHTGSLAGSYEIYRAAFRQAGAIEVEEMEELFDAAKAFEMYERAGRRVAIITNSGGPGVLATDKLERLGLEIAKLTEETVEELRSFLPPQCSVKNPVDLIADADYERYKRAIEVVCRDENVDAILVICVPPIFIPSEEIARAVVEANCDKPIIVNFMAGELVREGIKILESKKIKNFPTPERAAKALYWLSLRSSSE	soluble
MSLGKHVTIGFAGPQADHGWLNAINDNAKSRAKKYGDVTLEITEGSNDTAAQIGQIETLINKKVDVLVVLPADGKALTQVGLKAMRAGIPVVNLDRIFNSPQAYRCWIGGDNYGMGLSAGRYIGEKLKDKPNARVVELAGLDNLELTKQRTQGFDAALKNYPNIRKVARQAAEFTVESGQSKMAQLLQAQSRFDALWNHDDDQGVGALRAIKQAGRDDFLMVGGAGALSAFQAIKADDGVLKATVLYPPTMAASAIDLARALGQGKGVGGLAEFEIPASLTLYSAVVDKDNVGQYMSTGFREGHHHHHH	soluble
HYRRHSVESKLARAALDGMTAVMISDASLRIIMVNQEFENMMGYSTEQVKGSNAHSLILLPEDLEETLNIWNKLGRENVWEGEVRCRTQLNHVFTAIMRIQANLTKSGKISYYITSLVDISE	not soluble
SHLVVESFPSYRDVTLFEGKRVSFYKRAQILVADTWSVLEGKGDGCFKDISSITMFADYRLPQVLAHLGALKYSDDLLKKLLKGEMLSYGDRQEVEIRGCSLWCVELIRDCLLELIEQKGEKPNGEINSILLDYYLWDYAHDHREDMKGIPFHRIRCIYY	soluble
